Drawing on patent EP4799649A1 (RemeGen Co., Ltd., dated 2026), this text covers EC50 for 2 molecules.

In assay [1] the target is T1, APRIL homotrimer (UniProt O75888 105-250, limits assumed).
T1 construct: also called a proliferation-inducing ligand
T1 sequence (looked up): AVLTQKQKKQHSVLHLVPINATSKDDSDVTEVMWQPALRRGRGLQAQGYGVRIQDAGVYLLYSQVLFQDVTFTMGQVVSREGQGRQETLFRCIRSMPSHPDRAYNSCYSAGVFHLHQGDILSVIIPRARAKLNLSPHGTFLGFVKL
Nature of the assay: ELISA on APRIL homotrimer. (In general: An ELISA detects its analyte on a solid surface through an enzyme-linked reagent.)

For assay [2], the target named is T2, Blys homotrimer (UniProt Q9Y275 134-285).
T2 construct: also called BAFF; B lymphocyte stimulator
T2 sequence (Q9Y275 134-285 limits assumed): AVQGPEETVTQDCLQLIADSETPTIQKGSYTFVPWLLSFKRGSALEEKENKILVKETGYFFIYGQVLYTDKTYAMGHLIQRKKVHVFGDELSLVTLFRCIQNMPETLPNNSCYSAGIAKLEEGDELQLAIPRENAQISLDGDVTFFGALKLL
As to the kind of experiment: ELISA on Blys homotrimer.

B1: povetacicept (Fc fusion)
chain: SLSCRKEQGEYYDHLLRDCISCASICGQHPKQCADFCENKLRSGSGGGGSEPKSSDKTHTCPPCPAPEAEGAPSVFLFPPKPKDTLMISRTPEVTCVVVDVSHEDPEVKFNWYVDGVEVHNAKTKPREEQYNSTYRVVSVLTVLHQDWLNGKEYKCKVSNKALPAPIEKTISKAKGQPREPQVYTLPPSRDELTKNQVSLTCLVKGFYPSDIAVEWESNGQPENNYKTTPPVLDSDGSFFLYSKLTVDKSRWQQGNVFSCSVMHEALHNHYTQKSLSLSPG
notes: Fc fusion protein of an engineered TACI domain
In general, EC50 refers to the concentration that produces a half-maximal response. The low end stands for greater potency, the high end for weaker potency. Regarding B1, the EC50 in assay [1] was 0.128 nM; in assay [2], 0.057 nM.

B2: telitacicept (Fc fusion)
chain: SRVDQEERFPQGLWTGVAMRSCPEEQYWDPLLGTCMSCKTICNHQSQRTCAAFCRSLSCRKEQGKFYDHLLRDCISCASICGQHPKQCAYFCENKLRSPVNLPPELDKTHTCPPCPAPEAEGAPSVFLFPPKPKDTLMISRTPEVTCVVVDVSHEDPEVKFNWYVDGVEVHNAKTKPREEQYNSTYRVVSVLTVLHQDWLNGKEYKCKVSNKALPSSIEKTISKAKGQPREPQVYTLPPSRDELTKNQVSLTCLVKGFYPSDIAVEWESNGQPENNYKTTPPVLDSDGSFFLYSKLTVDKSRWQQGNVFSCSVMHEALHNHYTQKSLSLSPGK
notes: TACI-Fc fusion protein (truncated TACI plus optimized human IgG1 Fc); also called RC18; Tai'ai
Regarding B2, the EC50 in assay [1] was 1.1 nM; in assay [2] it was 0.219 nM.
